The supplement of paper PMC9112550, “Optimization of the antimicrobial peptide Bac7 by deep mutational scanning” (BMC Biology, 2022)

System: Escherichia coli TOP10
Assay: shrunken log2 fold change of peptide-encoding DNA abundance (4.5 h post-induction vs induction); higher = less antimicrobial activity (less host growth inhibition)
Conditions: time post-induction: 4.5 h; library: site-saturation at positions 5, 18, 19, 20
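Further: peptides expressed intracellularly from a pBAD plasmid library in pooled LB shake-flask culture, induced with 0.3% L-arabinose, DNA abundance read by NGS, three biological replicates, DESeq2 with apeglm shrinkage.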

Row | Sequence | shrunken log2 fold change
1 | RRIRPRPPRLPRPRPRPSCIPRP | -0.749
2 | RRIRVRPPRLPRPRPRPMCLPRP | -0.0244
3 | RRIRWRPPRLPRPRPRPWHMPRP | 0.219
4 | RRIRTRPPRLPRPRPRPRQPPRP | 0.135
5 | RRIRFRPPRLPRPRPRPAPYPRP | 1.75
6 | RRIRDRPPRLPRPRPRPDDSPRP | -0.0417
7 | RRIRWRPPRLPRPRPRPMMKPRP | 0.155
8 | RRIRERPPRLPRPRPRPAFQPRP | 0.0677
9 | RRIRRRPPRLPRPRPRPQYNPRP | -0.224
10 | RRIRQRPPRLPRPRPRPGCKPRP | -0.0467
11 | RRIRQRPPRLPRPRPRPTVRPRP | 0.0397
12 | RRIRFRPPRLPRPRPRPENEPRP | 0.15
13 | RRIRTRPPRLPRPRPRPYPLPRP | 0.0692
14 | RRIRHRPPRLPRPRPRPKNRPRP | -0.227
15 | RRIRNRPPRLPRPRPRPPYFPRP | -0.172
16 | RRIRKRPPRLPRPRPRPMIRPRP | 0.134
17 | RRIRERPPRLPRPRPRPKLTPRP | 0.21
18 | RRIRIRPPRLPRPRPRPTQAPRP | -0.00254
19 | RRIRSRPPRLPRPRPRPNMDPRP | -0.184
20 | RRIRIRPPRLPRPRPRPSGAPRP | 0.0148

Row | Sequence | shrunken log2 fold change
21 | RRIRDRPPRLPRPRPRPYSWPRP | 0.016
22 | RRIRARPPRLPRPRPRPNASPRP | 0.711
23 | RRIRMRPPRLPRPRPRPKYDPRP | 0.114
24 | RRIRYRPPRLPRPRPRPNHVPRP | -0.219
25 | RRIRQRPPRLPRPRPRPVYNPRP | -0.0538
26 | RRIRQRPPRLPRPRPRPAQTPRP | 0.13
27 | RRIRLRPPRLPRPRPRPMTIPRP | 0.0154
28 | RRIRRRPPRLPRPRPRPAGGPRP | 0.327
29 | RRIRDRPPRLPRPRPRPGWNPRP | 0.69
30 | RRIRARPPRLPRPRPRPLVGPRP | 0.321
31 | RRIRKRPPRLPRPRPRPHRMPRP | -0.0995
32 | RRIRNRPPRLPRPRPRPRINPRP | -0.14
33 | RRIRFRPPRLPRPRPRPSTHPRP | -0.569
34 | RRIRLRPPRLPRPRPRPEREPRP | 0.0872
35 | RRIRERPPRLPRPRPRPRTWPRP | -0.149
36 | RRIRSRPPRLPRPRPRPGSRPRP | 0.297
37 | RRIRYRPPRLPRPRPRPKSHPRP | 0.49
38 | RRIRTRPPRLPRPRPRPEAKPRP | -0.0276
39 | RRIRGRPPRLPRPRPRPAIGPRP | 0.591
40 | RRIRCRPPRLPRPRPRPWVPPRP | -0.423

Row | Sequence | shrunken log2 fold change
41 | RRIRGRPPRLPRPRPRPKGEPRP | 0.197
42 | RRIRKRPPRLPRPRPRPAGSPRP | 0.0961
43 | RRIRQRPPRLPRPRPRPWNFPRP | -0.15
44 | RRIRTRPPRLPRPRPRPTRIPRP | -0.204
45 | RRIRERPPRLPRPRPRPHKGPRP | -0.194
46 | RRIRQRPPRLPRPRPRPFFDPRP | -0.0271
47 | RRIRVRPPRLPRPRPRPLPEPRP | 0.423
48 | RRIRRRPPRLPRPRPRPDRAPRP | 0.322
49 | RRIRGRPPRLPRPRPRPRWIPRP | 0.152
50 | RRIRDRPPRLPRPRPRPHRGPRP | -0.0201
51 | RRIRCRPPRLPRPRPRPKNCPRP | 0.0619
52 | RRIRSRPPRLPRPRPRPPTIPRP | 0.0521
53 | RRIRLRPPRLPRPRPRPMQCPRP | -0.0717
54 | RRIRQRPPRLPRPRPRPQPWPRP | 0.141
55 | RRIRARPPRLPRPRPRPEWMPRP | 0.252
56 | RRIRWRPPRLPRPRPRPHAIPRP | -0.124
57 | RRIRLRPPRLPRPRPRPNSDPRP | -0.2
58 | RRIRGRPPRLPRPRPRPNIHPRP | 0.0679
59 | RRIRDRPPRLPRPRPRPMGFPRP | 0.258
60 | RRIRDRPPRLPRPRPRPHKIPRP | -0.524
